The Immune Epitope Database (IEDB)

Legend:
HLA-A*02:01 [1] = assay: IEDB peptide-MHC binding, cellular MHC/competitive/fluorescence; ≥ and ≤ were set here for values at or beyond the usual limits of such assays
HLA-C*14:02 = assay: IEDB peptide-MHC binding, purified MHC/direct/fluorescence; filed as Kd, often an IC50 or EC50 that approximates it; ≥ and ≤ were set here for values at or beyond the usual limits of such assays
HLA-C*05:01 = assay: as above
HLA-A*02:03 = assay: as above; conditions: source organism: Listeria monocytogenes serotype 4b str. H7858
HLA-A*02:16 = assay: as above; conditions: source organism: Listeria monocytogenes serotype 4b str. H7858
HLA-A*02:11 = assay: as above; conditions: source organism: Listeria monocytogenes serotype 4b str. H7858
HLA-A*02:12 = assay: as above; conditions: source organism: Listeria monocytogenes serotype 4b str. H7858
HLA-B*15:17 = assay: as above; conditions: source organism: Listeria monocytogenes serotype 4b str. H7858
HLA-A*29:02 = assay: as above; conditions: source organism: Listeria monocytogenes serotype 4b str. H7858
HLA-A*24:03 [2] = assay: as above; conditions: source organism: Listeria monocytogenes serotype 4b str. H7858
HLA-B*46:01 = assay: as above; conditions: source organism: Listeria monocytogenes serotype 4b str. H7858
HLA-B*15:01 = assay: as above; conditions: source organism: Listeria monocytogenes serotype 4b str. H7858
HLA-B*18:01 = assay: as above; conditions: source organism: Listeria monocytogenes serotype 4b str. H7858
HLA-A*03:01 = assay: as above; conditions: source organism: Listeria monocytogenes serotype 4b str. H7858
HLA-B*57:01 = assay: as above; conditions: source organism: Listeria monocytogenes serotype 4b str. H7858
HLA-A*02:19 = assay: as above; conditions: source organism: Listeria monocytogenes serotype 4b str. H7858
HLA-B*27:03 = assay: as above; conditions: source organism: Listeria monocytogenes serotype 4b str. H7858
HLA-A*26:01 = assay: as above; conditions: source organism: Listeria monocytogenes serotype 4b str. H7858
HLA-A*02:01 [3] = assay: as above; conditions: source organism: Listeria monocytogenes serotype 4b str. H7858
HLA-A*69:01 = assay: as above; conditions: source organism: Listeria monocytogenes serotype 4b str. H7858
HLA-A*68:02 = assay: as above; conditions: source organism: Listeria monocytogenes serotype 4b str. H7858
HLA-B*51:01 = assay: as above; conditions: source organism: Listeria monocytogenes serotype 4b str. H7858
HLA-A*24:03 [4] = assay: IEDB peptide-MHC binding, purified MHC/competitive/fluorescence; filed as Kd, often an IC50 or EC50 that approximates it; ≥ and ≤ were set here for values at or beyond the usual limits of such assays; conditions: source organism: Bacillus cereus G9241
HLA-C*15:02 = assay: IEDB peptide-MHC binding, purified MHC/direct/fluorescence; filed as Kd, often an IC50 or EC50 that approximates it; ≥ and ≤ were set here for values at or beyond the usual limits of such assays; conditions: source organism: Burkholderia pseudomallei 1710b

Substance: ALGGGATGV
- IC50 (HLA-A*02:01 [1]; source organism: Mycobacterium tuberculosis): 1.4 µM

Substance: APAAAAQAV
- Kd (HLA-C*14:02; source organism: Mycobacterium tuberculosis C): 3.08 µM

Substance: FRDEAGAIL
- Kd (HLA-C*05:01; source organism: Listeria monocytogenes FSL R2-503): 2.21 µM
- Kd (HLA-A*02:03): ≥ 20 µM
- Kd (HLA-A*02:16): ≥ 20 µM
- Kd (HLA-A*02:11): ≥ 20 µM
- Kd (HLA-A*02:12): ≥ 20 µM
- Kd (HLA-B*15:17): ≥ 20 µM
- Kd (HLA-A*29:02): ≥ 20 µM
- Kd (HLA-A*24:03 [2]): ≥ 20 µM
- Kd (HLA-B*46:01): ≥ 20 µM
- Kd (HLA-B*15:01): ≥ 20 µM
- Kd (HLA-B*18:01): ≥ 20 µM
- Kd (HLA-A*03:01): ≥ 20 µM
- Kd (HLA-B*57:01): ≥ 20 µM
- Kd (HLA-A*02:19): ≥ 20 µM
- Kd (HLA-B*27:03): ≥ 20 µM
- Kd (HLA-A*26:01): ≥ 20 µM
- Kd (HLA-A*02:01 [3]): ≥ 20 µM
- Kd (HLA-A*69:01): ≥ 20 µM
- Kd (HLA-A*68:02): ≥ 20 µM
- Kd (HLA-B*51:01): ≥ 20 µM

Substance: KFIILLTSF
- Kd (HLA-A*24:03 [4]): 0.159 µM
- Kd (HLA-C*14:02; source organism: Bacillus cereus G9241): 1.23 µM

Substance: KTADVTVVF
- Kd (HLA-C*05:01; source organism: Burkholderia pseudomallei 1710b): 0.06 µM
- Kd (HLA-C*15:02): 0.253 µM

Substance: LGIVCPI
- IC50 (HLA-A*02:01 [1]; source organism: Human papillomavirus 16): 0.7 µM
